Drawing on paper PMC6989304, this text covers stoichiometry N for 1 substance.

The test concerns the target Pinhead-HA (secreted, in conditioned medium of HEK293T cells) (zebrafish). Briefly: reducing and non-reducing SDS-PAGE with immunoblot.

The term stoichiometry N denotes the number of molecules, sites or subunits per partner or assembly.

“Pinhead-HA (secreted, in conditioned medium of HEK293T cells) (ligand)” showed a stoichiometry N of 2.
